Consider 1 molecule from article PMC3082007, “The microRNA cluster miR-106b~25 regulates adult neural stem/progenitor cell proliferation and neuronal differentiation”.

The target in this data set is FoxO3-GST (human, UniProt O43524 1-673). The data set can be described thus: EMSA; 5 nM probe; 50 ng/ul protein; Binding Buffer as printed: 200 mM Tris-HCl pH 7.5, 200 mM KCl, 200 mM MgCl2, 2% NP-40, 10% glycerol, 5 mM DTT, 500 ng/ul salmon sperm DNA (possibly a stock concentration); room temperature 20 min; 4% native PAGE at 4 C. Particulars: protein: recombinant; tags: GST; label: 32P; blunt.
Sequence of FoxO3-GST (O43524 whole entry): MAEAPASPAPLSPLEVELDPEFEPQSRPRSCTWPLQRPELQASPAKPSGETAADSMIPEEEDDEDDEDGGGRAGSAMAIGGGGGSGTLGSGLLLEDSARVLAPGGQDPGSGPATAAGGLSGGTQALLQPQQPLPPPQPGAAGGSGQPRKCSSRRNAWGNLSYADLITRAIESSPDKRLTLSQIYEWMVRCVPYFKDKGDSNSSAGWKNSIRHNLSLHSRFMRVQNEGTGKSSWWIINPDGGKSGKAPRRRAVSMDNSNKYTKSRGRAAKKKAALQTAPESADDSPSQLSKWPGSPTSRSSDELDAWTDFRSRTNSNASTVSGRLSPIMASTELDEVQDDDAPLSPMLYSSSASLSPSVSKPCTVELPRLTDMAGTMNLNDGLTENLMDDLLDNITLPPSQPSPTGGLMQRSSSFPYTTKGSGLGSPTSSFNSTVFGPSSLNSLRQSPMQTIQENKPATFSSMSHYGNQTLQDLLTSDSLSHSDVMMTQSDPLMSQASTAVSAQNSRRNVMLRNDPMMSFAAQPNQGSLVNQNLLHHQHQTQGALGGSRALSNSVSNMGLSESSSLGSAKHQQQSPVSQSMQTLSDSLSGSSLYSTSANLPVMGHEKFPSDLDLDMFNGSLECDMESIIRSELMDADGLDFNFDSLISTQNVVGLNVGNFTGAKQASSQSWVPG

B1: FHRE WT (miR-106b~25/Mcm7 intron 1) (dsDNA)
DNA 1: GGCCCATGTGCTTCTTTGTTTACTAAGAGCGGAAGCAG
DNA 2: CTGCTTCCGCTCTTAGTAAACAAAGAAGCACATGGGCC
For B1, the binding result is given as “binds”.
